Data taken from patent publication US20060142193A1, “Selective inhibition of rock1 in cardiac therapy” (BAYLOR COLLEGE OF MEDICINE, priority 2004, published 2006).

Tests used:
PTEN = PTEN activity by Malachite green assay in human HEK cells; format: cell-based; settings: transfected HEK cells
From the text: (§1) To further characterize the mechanism involved in this caspase activation, the present inventors transfected ROCKΔ1 in human HEK cells. […] Since AKT is activated by PI3K, PTEN acts as the upstream PI3K inhibitor. In specific embodiments of the invention, the repression of AKT activity caused by ROCKΔ1 may contribute to its pro-apoptotic effect through the increase in PTEN activity. […] Meanwhile, the decreased level of pAKT by ROCKΔ1 was reverted by blocking PTEN expression. Furthermore, the pAKT level was higher than the control level (FIG. 22D), which further supported this specific embodiment.
Western blot and Malachite green assay. Anti-ROCK-1, caspase 3, PARP, His, α-actin antibodies (Santa Cruz), anti-phospho-AKTser473 (Cell Signaling) and anti-RTEN (Upstate) were purchased. Protein samples for Western blot were prepared and separated as described earlier (Chang et al., 2000). Even loadings were confirmed by Ponceau staining and antibody probed for actin. PTEN activity was evaluated by Malachite green assay (Upstate). 500 μg of cell lysate protein was used for immunoprecipitation.

caspase 3 = test: Caspase 3 activation in transfected neonatal rat cardiomyocytes (pCaspase3-sensor); format: cell-based; settings: overexpression vs control plasmid
From the text: To determine whether ROCK1 activation by caspase 3 cleavage is able to activate the caspase cascade, thereby constituting an amplification loop of apoptotic responses, the present inventors transfected rat neonatal cardiomyocytes with a plasmid encoding a C-terminally truncated mutant (1-1080) of ROCK1 (ROCK1Δ1) that corresponds closely to the fragment generated by caspase 3 cleavage (1-1113), and a second plasmid, pCaspase3-sensor encoding a fluorescent (EYFP) fusion protein (FIG. 9A). […] Caspase 3 activity in the transfected myocytes was monitored by counting the number of transfected cells with nuclear localization of fluorescent fusion protein.
Apoptosis assay and immunofluorescence analysis. Apoptosis was evaluated using caspase 3 activity and poly(ADP-ribose) polymerase (PARP) cleavage with Western blot in human and mouse heart tissues. With regard to apoptotic cultured neonatal cardiomyocytes, a caspase 3 sensor (BD Biosciences) was introduced to detect the onset of caspase 3 activity (FIG. 9). The vector encodes EYFP (enhanced yellow fluorescent protein) fused with NES (nuclear export signal) and NLS (nuclear localization signal). A caspase 3 specific cleavage site is located between EYFP and NES. […] The quantification was performed by counting the number of transfected cells with the nuclear localization of fluorescent fusion protein over the total transfected cells. […]

phospho-AKT (pAKT) = test: phospho-AKT level in human HEK cells (Western blot); format: cell-based; settings: transfected HEK cells
From the text: as §1
Cell culture, plasmid constructs, and recombinant adenoviruses. Neonatal rat cardiomyocytes were isolated and cultured in DMEM/F12 medium (1:1) with 10% horse serum (DF10); cells were ready for transfection or virus infection 40 hours after plating. For immunostaining, cells were cultured on pre-coated (with 0.2% gelatin) coverslips. Transfections were performed using LipofectAMINE 2000 (Invitrogen) with Opti-MEM I Reduced Serum Medium (Invitrogen). After 6 hr or O/N, cells were cultured in DF10. With human embryonic kidney (HEK) A293T cells, cells were cultured in DMEM with 10% fetal bovine serum. […]
Western blot and Malachite green assay. […] PTEN activity was evaluated by Malachite green assay (Upstate). […]

SRF = target: T1, SRF (Homo sapiens, UniProt P11831); test: SRF cleavage by active caspase 3 in vitro in presence or absence of ROCK1Δ1; format: biochemical; settings: in the presence of active ROCK1
T1 sequence (P11831 1-508): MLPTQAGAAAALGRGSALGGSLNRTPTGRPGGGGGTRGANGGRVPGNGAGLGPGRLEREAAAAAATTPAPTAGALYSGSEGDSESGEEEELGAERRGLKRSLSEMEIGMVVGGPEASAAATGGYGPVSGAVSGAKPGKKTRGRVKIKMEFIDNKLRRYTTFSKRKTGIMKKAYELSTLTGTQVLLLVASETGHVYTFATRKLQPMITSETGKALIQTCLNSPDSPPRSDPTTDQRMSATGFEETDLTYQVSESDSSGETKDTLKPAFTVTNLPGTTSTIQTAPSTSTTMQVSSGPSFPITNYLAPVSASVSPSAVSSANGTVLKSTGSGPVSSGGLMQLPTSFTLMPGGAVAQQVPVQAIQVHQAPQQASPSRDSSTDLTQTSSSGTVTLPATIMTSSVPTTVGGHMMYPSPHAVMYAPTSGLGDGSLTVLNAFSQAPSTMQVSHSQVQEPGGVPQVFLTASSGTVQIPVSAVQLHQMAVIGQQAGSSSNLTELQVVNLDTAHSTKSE
Description: Equal amounts of SRF were incubated with active caspase 3 in the presence or absence of ROCK1Δ1.

B1: full length ROCK1: full length human ROCK-1 expressed from pCAG-ROCK-1 (protein, UniProt Q13464 1-1354, looked up)
chain: MSTGDSFETRFEKMDNLLRDPKSEVNSDCLLDGLDALVYDLDFPALRKNKNIDNFLSRYKDTINKIRDLRMKAEDYEVVKVIGRGAFGEVQLVRHKSTRKVYAMKLLSKFEMIKRSDSAFFWEERDIMAFANSPWVVQLFYAFQDDRYLYMVMEYMPGGDLVNLMSNYDVPEKWARFYTAEVVLALDAIHSMGFIHRDVKPDNMLLDKSGHLKLADFGTCMKMNKEGMVRCDTAVGTPDYISPEVLKSQGGDGYYGRECDWWSVGVFLYEMLVGDTPFYADSLVGTYSKIMNHKNSLTFPDDNDISKEAKNLICAFLTDREVRLGRNGVEEIKRHLFFKNDQWAWETLRDTVAPVVPDLSSDIDTSNFDDLEEDKGEEETFPIPKAFVGNQLPFVGFTYYSNRRYLSSANPNDNRTSSNADKSLQESLQKTIYKLEEQLHNEMQLKDEMEQKCRTSNIKLDKIMKELDEEGNQRRNLESTVSQIEKEKMLLQHRINEYQRKAEQENEKRRNVENEVSTLKDQLEDLKKVSQNSQLANEKLSQLQKQLEEANDLLRTESDTAVRLRKSHTEMSKSISQLESLNRELQERNRILENSKSQTDKDYYQLQAILEAERRDRGHDSEMIGDLQARITSLQEEVKHLKHNLEKVEGERKEAQDMLNHSEKEKNNLEIDLNYKLKSLQQRLEQEVNEHKVTKARLTDKHQSIEEAKSVAMCEMEKKLKEEREAREKAENRVVQIEKQCSMLDVDLKQSQQKLEHLTGNKERMEDEVKNLTLQLEQESNKRLLLQNELKTQAFEADNLKGLEKQMKQEINTLLEAKRLLEFELAQLTKQYRGNEGQMRELQDQLEAEQYFSTLYKTQVKELKEEIEEKNRENLKKIQELQNEKETLATQLDLAETKAESEQLARGLLEEQYFELTQESKKAASRNRQEITDKDHTVSRLEEANSMLTKDIEILRRENEELTEKMKKAEEEYKLEKEEEISNLKAAFEKNINTERTLKTQAVNKLAEIMNRKDFKIDRKKANTQDLRKKEKENRKLQLELNQEREKFNQMVVKHQKELNDMQAQLVEECAHRNELQMQLASKESDIEQLRAKLLDLSDSTSVASFPSADETDGNLPESRIEGWLSVPNRGNIKRYGWKKQYVVVSSKKILFYNDEQDKEQSNPSMVLDIDKLFHVRPVTQGDVYRAETEEIPKIFQILYANEGECRKDVEMEPVQQAEKTNFQNHKGHEFIPTLYHFPANCDACAKPLWHVFKPPPALECRRCHVKCHRDHLDKKEDLICPCKVSYDVTSARDMLLLACSQDEQKKWVTHLVKKIPKNPPSGFVRASPRTLSTRSTANQSFRKVVKNTSGKTS
modifications: full-length
In the case of B1, the PTEN activity (PTEN) is reported as “not found” and the “caspase 3 activation (nuclear localization of EYFP fusion protein)” value (caspase 3) is reported as “no significant effect”.

B2: ROCK1Δ1: C-terminally truncated mutant (1-1080) of ROCK1, constitutively active, mimics caspase 3 cleaved fragment (protein, UniProt Q13464 1-1080, looked up, fragment)
chain: MSTGDSFETRFEKMDNLLRDPKSEVNSDCLLDGLDALVYDLDFPALRKNKNIDNFLSRYKDTINKIRDLRMKAEDYEVVKVIGRGAFGEVQLVRHKSTRKVYAMKLLSKFEMIKRSDSAFFWEERDIMAFANSPWVVQLFYAFQDDRYLYMVMEYMPGGDLVNLMSNYDVPEKWARFYTAEVVLALDAIHSMGFIHRDVKPDNMLLDKSGHLKLADFGTCMKMNKEGMVRCDTAVGTPDYISPEVLKSQGGDGYYGRECDWWSVGVFLYEMLVGDTPFYADSLVGTYSKIMNHKNSLTFPDDNDISKEAKNLICAFLTDREVRLGRNGVEEIKRHLFFKNDQWAWETLRDTVAPVVPDLSSDIDTSNFDDLEEDKGEEETFPIPKAFVGNQLPFVGFTYYSNRRYLSSANPNDNRTSSNADKSLQESLQKTIYKLEEQLHNEMQLKDEMEQKCRTSNIKLDKIMKELDEEGNQRRNLESTVSQIEKEKMLLQHRINEYQRKAEQENEKRRNVENEVSTLKDQLEDLKKVSQNSQLANEKLSQLQKQLEEANDLLRTESDTAVRLRKSHTEMSKSISQLESLNRELQERNRILENSKSQTDKDYYQLQAILEAERRDRGHDSEMIGDLQARITSLQEEVKHLKHNLEKVEGERKEAQDMLNHSEKEKNNLEIDLNYKLKSLQQRLEQEVNEHKVTKARLTDKHQSIEEAKSVAMCEMEKKLKEEREAREKAENRVVQIEKQCSMLDVDLKQSQQKLEHLTGNKERMEDEVKNLTLQLEQESNKRLLLQNELKTQAFEADNLKGLEKQMKQEINTLLEAKRLLEFELAQLTKQYRGNEGQMRELQDQLEAEQYFSTLYKTQVKELKEEIEEKNRENLKKIQELQNEKETLATQLDLAETKAESEQLARGLLEEQYFELTQESKKAASRNRQEITDKDHTVSRLEEANSMLTKDIEILRRENEELTEKMKKAEEEYKLEKEEEISNLKAAFEKNINTERTLKTQAVNKLAEIMNRKDFKIDRKKANTQDLRKKEKENRKLQLELNQEREKFNQMVVKHQKELNDMQAQLVEECAHRNELQMQL
B2 was tested, and the “phospho-AKT (pAKT) level” value (phospho-AKT (pAKT)) was “decreased”, the PTEN activity (PTEN) was “increased” and the “caspase 3 activation (nuclear localization of EYFP fusion protein)” value (caspase 3) was “induced significant caspase 3 activation”. For the same molecule, the “full-length SRF level after incubation with active caspase 3” value (SRF) was “markedly decreased”.
